IntAct's records for PubMed 11168407

B1: Serine acetyltransferase 3, mitochondrial (Arabidopsis thaliana (Mouse-ear cress)), Q39218 (parent)
chain: MLPVTSRRHFTMSLYMLRSSSPHINHHSFLLPSFVSSKFKHHTLSPPPSPPPPPPMAACIDTCRTGKPQISPRDSSKHHDDESGFRYMNYFRYPDRSSFNGTQTKTLHTRPLLEDLDRDAEVDDVWAKIREEAKSDIAKEPIVSAYYHASIVSQRSLEAALANTLSVKLSNLNLPSNTLFDLFSGVLQGNPDIVESVKLDLLAVKERDPACISYVHCFLHFKGFLACQAHRIAHELWTQDRKILALLIQNRVSEAFAVDFHPGAKIGTGILLDHATAIVIGETAVVGNNVSILHNVTLGGTGKQCGDRHPKIGDGVLIGAGTCILGNITIGEGAKIGAGSVVLKDVPPRTTAVGNPARLLGGKDNPKTHDKIPGLTMDQTSHISEWSDYVI

Variants of: B1
Conditions: with cyskm_arath OASC
For V353E, the “effect of a mutation on the interaction” value was “decreasing interaction”. E282A was tested, and the “effect of a mutation on the interaction” value was “decreasing interaction”.

Variants of: B1
Conditions: with cyskm_arath OASC
Remark: another data set of the same source
In the case of V353A, the “effect of a mutation on the interaction” value is reported as “disrupting interaction”. With H309A the “effect of a mutation on the interaction” value was “increasing interaction”.
